For orientation: Kd means the constant that tells how readily two partners part at equilibrium. Low readings indicate tighter binding, high ones weaker binding.

The source of these data is PMC5648539 (Science signaling, 2017).

Where a chain is given by its changes, count along the chain named.

This assay addresses wild-type CXCL12 (stromal cell-derived factor-1) (UniProt P48061-2 22-89). The assay is described as follows: radioligand binding.

B1: FLAG-tagged human CXCR4, wild type (receptor, UniProt P61073 1-352, looked up)
chain: MEGISIYTSDNYTEEMGSGDYDSMKEPCFREENANFNKIFLPTIYSIIFLTGIVGNGLVILVMGYQKKLRSMTDKYRLHLSVADLLFVITLPFWAVDAVANWYFGNFLCKAVHVIYTVNLYSSVLILAFISLDRYLAIVHATNSQRPRKLLAEKVVYVGVWIPALLLTIPDFIFANVSEADDRYICDRFYPNDLWVVVFQFQHIMVGLILPGIVILSCYCIIISKLSHSKGHQKRKALKTTVILILAFFACWLPYYIGISIDSFILLEIIKQGCEFENTVHKWISITEALAFFHCCLNPILYAFLGAKFKTSAQHALTSVSRGSSLKILSKGKRGGHSSVSTESESSSFHSS
In turn, B1 showed a Kd of 1.45 nM.

B2: FLAG-tagged human CXCR4 Ile4Glu/Ile6Glu (receptor, UniProt P61073 1-352, looked up)
chain: B1 chain with I4E, I6E
As for B2, the affinity, expressed as Kd, was 45.7 nM. Against the preceding molecule, the Kd is about 32-fold higher.
